B1: Flagellum site-determining protein YlxH (Bacillus subtilis), P40742 (parent)
chain: MQMNRYDQAATLRAKMEKRERVLPMVYSQKAKTLAVISGKGGVGKSNITLNMALALQDKGKKVLLIDLDIGMGNIDILIGNSSSATIIDVLTDRKPLLQSLSVGPKGLRYISGGTGLDVMFQLDQRKWTFFANELSHALSQFDYVLFDMGAGLSKDQLPFILSAEDILIITTPEPTAIMDAYSAVKHLVLTENKLSMKVAVNRCRDQKEGLDAFARLSRTIHMFLDVQVQFAGSVSDDVIVSKAVVEQVPFFIKSPQAKASRSVRILADALFEREETRHKEDKQTFIEKLSSFLMRRA
partner: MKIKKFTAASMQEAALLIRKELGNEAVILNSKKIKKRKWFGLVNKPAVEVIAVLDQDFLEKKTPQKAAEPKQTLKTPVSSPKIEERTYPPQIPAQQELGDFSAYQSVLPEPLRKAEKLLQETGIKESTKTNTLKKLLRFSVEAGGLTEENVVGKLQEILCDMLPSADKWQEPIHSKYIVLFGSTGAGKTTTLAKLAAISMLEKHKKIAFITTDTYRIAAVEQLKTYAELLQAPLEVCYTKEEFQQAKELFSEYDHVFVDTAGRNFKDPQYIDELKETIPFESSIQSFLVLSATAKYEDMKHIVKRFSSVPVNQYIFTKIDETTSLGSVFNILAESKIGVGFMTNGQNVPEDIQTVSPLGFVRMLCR
B2: Flagellar biosynthesis protein FlhF (Bacillus subtilis), Q01960 (parent)
chain: B1 partner
partner: B1 chain

Variants of: B1
Conditions: with flhf_bacsu flhF

| effect of a mutation on the interaction | Variant |
| --- | --- |
| disrupting interaction | MQMNRYDAAATLRAKMEKRERVLPMVYSQKAKTLAVISGKGGVGKSNITLNMALALQDKGKKVLLIDLDIGMGNIDILIGNSSSATIIDVLTDRKPLLQSLSVGPKGLRYISGGTGLDVMFQLDQRKWTFFANELSHALSQFDYVLFDMGAGLSKDQLPFILSAEDILIITTPEPTAIMDAYSAVKHLVLTENKLSMKVAVNRCRDQKEGLDAFARLSRTIHMFLDVQVQFAGSVSDDVIVSKAVVEQVPFFIKSPQAKASRSVRILADALFEREETRHKEDKQTFIEKLSSFLMRRA [Q8A] |

Variants of: B2
Conditions: with ylxh_bacsu ylxH

| effect of a mutation on the interaction | Variant |
| --- | --- |
| disrupting interaction | MKIKKFTAASMQEAALLIRKELGNEAVILNSKKIKKRKWFGLVNKPAVEVIAVLDQDFLEKKTPQKAAEPKQTLKTPVSSPKIEERTYPPQIPAQQELGDFSAYQSVLPEPLRKAEKLLQETGIKESTKTNTLKKLLRFSVEAGGLTEENVVGKLQEILCDMLPSADKWQEPIHSKYIVLFGSTGAGKTTTLAKLAAISMLEKHKKIAFITTDTYAIAAVEQLKTYAELLQAPLEVCYTKEEFQQAKELFSEYDHVFVDTAGRNFKDPQYIDELKETIPFESSIQSFLVLSATAKYEDMKHIVKRFSSVPVNQYIFTKIDETTSLGSVFNILAESKIGVGFMTNGQNVPEDIQTVSPLGFVRMLCR [R216A] |

— IntAct's records for PubMed 22056770
